{
  "source": "paper doi:10.1101/476960",
  "binders": {"B1": {"name": "weak-sup miR-122 / 10 nt bridge (mixed)", "RNA 1": "UGGAGUGUGACACUAUCGAAAG", "RNA 2": "AUAGAAAAAAAAAAACACUCCUAA", "modifications": "5' phosphate on guide"}, "B2": {"name": "miR-122 21mer / 2-16 perfect target (mixed)", "RNA 1": "UGGAGUGUGACAAUGGUGUUU", "RNA 2": "CCAUUGUCACACUCCAAA", "modifications": "5' phosphate on guide"}, "B3": {"name": "strong-sup miR-122 / 2 nt bridge (mixed)", "RNA 1": "UGGAGUGUGACAGCGGCGAAAG", "RNA 2": "CCGCAAACACUCCUAA", "modifications": "5' phosphate on guide"}, "B4": {"name": "strong-sup miR-122 / 15 nt bridge (mixed)", "RNA 1": "UGGAGUGUGACAGCGGCGAAAG", "RNA 2": "CCGCAAAAAAAAAAAAAAAACACUCCUAA", "modifications": "5' phosphate on guide"}, "B5": {"name": "EV2 guide / g13-g14 target (mixed)", "RNA 1": "UGGAGUGUGACACCGGCGAAAG", "RNA 2": "GGCAAAACACUCCUAA", "modifications": "5' phosphate on guide"}, "B6": {"name": "strong-sup miR-122 / 4 nt bridge (mixed)", "RNA 1": "UGGAGUGUGACAGCGGCGAAAG", "RNA 2": "CCGCAAAAACACUCCUAA", "modifications": "5' phosphate on guide"}, "B7": {"name": "weak-sup miR-122 / 4 nt bridge (mixed)", "RNA 1": "UGGAGUGUGACACUAUCGAAAG", "RNA 2": "AUAGAAAAACACUCCUAA", "modifications": "5' phosphate on guide"}, "B8": {"name": "strong-sup miR-122 / 1 nt bridge (mixed)", "RNA 1": "UGGAGUGUGACAGCGGCGAAAG", "RNA 2": "CCGCAACACUCCUAA", "modifications": "5' phosphate on guide"}},
  "key": {"Ago2 [1]": {"target": "T1, Ago2 (Homo sapiens, UniProt Q9UKV8 1-859)", "T1 sequence (Q9UKV8 whole entry)": "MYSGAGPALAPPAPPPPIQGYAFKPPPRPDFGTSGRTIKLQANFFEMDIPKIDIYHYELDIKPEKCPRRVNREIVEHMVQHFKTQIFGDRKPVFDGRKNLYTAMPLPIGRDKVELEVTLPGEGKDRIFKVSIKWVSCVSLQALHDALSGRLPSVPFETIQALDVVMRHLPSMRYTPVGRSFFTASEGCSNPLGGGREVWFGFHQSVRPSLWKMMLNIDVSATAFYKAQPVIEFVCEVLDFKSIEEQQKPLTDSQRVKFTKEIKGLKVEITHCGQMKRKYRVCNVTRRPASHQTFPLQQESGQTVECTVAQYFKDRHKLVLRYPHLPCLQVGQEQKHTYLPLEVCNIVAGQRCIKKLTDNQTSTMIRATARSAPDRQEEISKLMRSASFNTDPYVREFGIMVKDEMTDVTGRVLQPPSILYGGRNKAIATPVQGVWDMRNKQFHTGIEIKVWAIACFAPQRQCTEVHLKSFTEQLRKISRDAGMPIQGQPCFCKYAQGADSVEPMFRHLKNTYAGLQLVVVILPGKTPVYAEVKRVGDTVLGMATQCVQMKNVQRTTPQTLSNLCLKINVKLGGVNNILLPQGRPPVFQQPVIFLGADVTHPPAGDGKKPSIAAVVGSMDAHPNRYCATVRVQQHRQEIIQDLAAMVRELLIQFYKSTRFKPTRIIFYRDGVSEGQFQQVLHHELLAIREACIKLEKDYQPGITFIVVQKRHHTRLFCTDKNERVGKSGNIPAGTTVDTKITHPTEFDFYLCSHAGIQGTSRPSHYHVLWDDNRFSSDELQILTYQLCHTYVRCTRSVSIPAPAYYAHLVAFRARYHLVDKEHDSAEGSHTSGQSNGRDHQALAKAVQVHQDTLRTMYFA", "assay": "filter binding"}, "Ago2 D669A": {"target": "Ago2 D669A (Homo sapiens, UniProt Q9UKV8 1-859, D669A)", "sequence (Q9UKV8 whole entry D669A)": "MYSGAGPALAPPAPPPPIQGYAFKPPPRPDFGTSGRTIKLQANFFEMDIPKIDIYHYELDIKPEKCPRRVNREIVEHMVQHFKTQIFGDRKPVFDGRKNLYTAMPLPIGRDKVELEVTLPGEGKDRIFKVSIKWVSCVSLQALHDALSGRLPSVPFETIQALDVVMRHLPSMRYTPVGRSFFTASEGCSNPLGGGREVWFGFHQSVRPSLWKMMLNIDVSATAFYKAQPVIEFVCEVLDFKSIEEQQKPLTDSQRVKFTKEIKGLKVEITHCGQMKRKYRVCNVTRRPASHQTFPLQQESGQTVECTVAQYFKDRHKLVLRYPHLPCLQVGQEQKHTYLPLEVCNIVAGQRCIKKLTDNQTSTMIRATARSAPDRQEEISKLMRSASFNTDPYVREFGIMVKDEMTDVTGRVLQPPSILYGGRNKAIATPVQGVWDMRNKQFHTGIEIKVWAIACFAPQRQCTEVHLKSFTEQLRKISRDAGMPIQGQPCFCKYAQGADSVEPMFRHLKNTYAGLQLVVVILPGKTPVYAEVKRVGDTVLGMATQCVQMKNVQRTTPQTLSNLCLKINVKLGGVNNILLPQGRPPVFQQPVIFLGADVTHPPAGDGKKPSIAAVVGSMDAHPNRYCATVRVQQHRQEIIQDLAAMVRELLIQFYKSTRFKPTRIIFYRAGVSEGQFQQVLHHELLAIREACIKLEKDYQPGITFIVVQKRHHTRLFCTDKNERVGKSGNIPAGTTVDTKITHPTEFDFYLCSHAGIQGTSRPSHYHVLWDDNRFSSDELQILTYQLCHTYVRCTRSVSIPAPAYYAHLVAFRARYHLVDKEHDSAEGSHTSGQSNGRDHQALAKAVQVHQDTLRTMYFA", "assay": "X-ray crystallography"}, "Ago2 [2]": {"target": "T1, Ago2", "assay": "filter binding", "remark": "listed apart in the source"}, "Ago2 [3]": {"target": "T1, Ago2", "assay": "filter binding", "remark": "listed apart in the source"}},
  "note": "Read-outs that look alike come from different tables or passages of the source.",
  "data": [
    {"binder": "B1", "values": [
      {"measurement": "binding signal", "setting": "Ago2 [1]", "result": "1.9 fold affinity vs seed-only N2"}
    ]},
    {"binder": "B2", "values": [
      {"measurement": "binding result", "setting": "Ago2 D669A", "result": "binds"}
    ]},
    {"binder": "B3", "values": [
      {"measurement": "binding signal", "setting": "Ago2 [2]", "result": "> 20 fold affinity vs seed-only N7"}
    ]},
    {"binder": "B4", "values": [
      {"measurement": "binding signal", "setting": "Ago2 [2]", "result": "> 10 fold affinity vs seed-only N7"}
    ]},
    {"binder": "B5", "values": [
      {"measurement": "binding signal", "setting": "Ago2 [3]", "result": "> 3.5 fold affinity vs seed-only N13"}
    ]},
    {"binder": "B6", "values": [
      {"measurement": "binding signal", "setting": "Ago2 [2]", "result": "> 20 fold affinity vs seed-only N7"}
    ]},
    {"binder": "B7", "values": [
      {"measurement": "binding signal", "setting": "Ago2 [1]", "result": "> 10 fold affinity vs seed-only N2"}
    ]},
    {"binder": "B8", "values": [
      {"measurement": "binding signal", "setting": "Ago2 [2]", "result": "> 10 fold affinity vs seed-only N7"}
    ]}
  ]
}
